Substitutions are numbered along the chain they refer to.
Assays:
HMGB1 domain A wild type = target: T1, HMGB1 domain A wild type (UniProt P09429 9-79); assay: EMSA
T1 sequence: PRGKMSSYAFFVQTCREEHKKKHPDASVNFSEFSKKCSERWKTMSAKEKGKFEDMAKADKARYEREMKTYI

HMGB1 domain A C22S/C44S = target: T2, HMGB1 domain A C22S/C44S (UniProt P09429 9-79, C23S;C45S); assay: EMSA
T2 sequence: T1 sequence with C15S, C37S

HMGB1 domain A C22A = target: T3, HMGB1 domain A C22A (UniProt P09429 9-79, C23A); assay: EMSA
T3 sequence: T1 sequence with C15A

HMGB1 domain A C44A = target: T4, HMGB1 domain A C44A (UniProt P09429 9-79, C45A); assay: EMSA
T4 sequence: T1 sequence with C37A

HMGB1 domain A C44S = target: T5, HMGB1 domain A C44S (UniProt P09429 9-79, C45S); assay: EMSA
T5 sequence: T1 sequence with C37S

HMGB1 domain A C22A/C44A = target: T6, HMGB1 domain A C22A/C44A (UniProt P09429 9-79, C23A;C45A); assay: hydroxyl radical footprinting
T6 sequence: T1 sequence with C15A, C37A

B1: 25-bp cisplatin-modified TGGA probe (dsDNA)
DNA 1: CCTCTCCTCTCTGGATCTTCTCTCC
DNA 2: GGAGAGAAGATCCAGAGAGGAGAGG
modifications: cisplatin 1,2-d(GpG) intrastrand cross-link at N7 of G13 and G14 of strand 1
HMGB1 domain A wild type
  Kd: 0.7 ± 0.1 nM
HMGB1 domain A C22S/C44S
  Kd: 1.65 ± 0.37 nM
HMGB1 domain A C22A
  Kd: 1.12 ± 0.14 nM
HMGB1 domain A C44A
  Kd: 2.41 ± 0.31 nM
HMGB1 domain A C44S
  Kd: 1.6 ± 0.07 nM
HMGB1 domain A C22A/C44A
  binding result: binds

— publication PMC3068233
